Reference: publication PMC4760375, “A dual phosphorylation switch controls 14-3-3-dependent cell surface expression of TASK-1” (Journal of Cell Science, 2016)
Non-standard residues stand in square brackets, D forms with d. No end group written: not given here. pS = N[C@@H](COP(=O)(O)O)C(=O)O

B1: TASK-3 pS373 ΔV374 C-terminal fluorescent peptide (peptide, UniProt Q9NPC2 360-374, looked up)
peptide: SFTDHQRLMKRRK[pS]
modifications: also: fluorescein label, position not given here
notes: TASK-3 (KCNK9), human, C-terminal peptide with phosphorylated S373 but lacking the C-terminal valine V374; ends at pS373; source: synthetic peptide, bought: Peps4Life Sciences

Tests used:
[1] = target: T1, GST-tagged TASK-3 C-terminal 15 residues fusion protein, phosphorylated with PKA catalytic subunit (human, UniProt Q9NPC2 360-374); assay: SPR
T1 chain: {GST}-SFTDHQRLMKRRK[pS]V

[2] = target: TASK-1 pS392 C-terminal fluorescent peptide (human) (UniProt O14649); assay: fluorescence polarisation; 10 nM fluorescein-labelled peptide titrated with 14-3-3 protein (1 nM to 120 µM in the results, 100 µM to 1 nM in the methods); 20 mM MOPS, 150 mM NaCl, 0.005% (v/v) CHAPS pH 7.0; room temperature; monophasic fit
[3] = target: TASK-1 pS393 C-terminal fluorescent peptide (last 15 amino acids) (human) (UniProt O14649); assay: as above
[4] = target: B1; assay: as above; details: both partners purified
14-3-3η [5] = target: T2, 14-3-3η (human, UniProt Q04917 1-246); assay: FP
T2 chain: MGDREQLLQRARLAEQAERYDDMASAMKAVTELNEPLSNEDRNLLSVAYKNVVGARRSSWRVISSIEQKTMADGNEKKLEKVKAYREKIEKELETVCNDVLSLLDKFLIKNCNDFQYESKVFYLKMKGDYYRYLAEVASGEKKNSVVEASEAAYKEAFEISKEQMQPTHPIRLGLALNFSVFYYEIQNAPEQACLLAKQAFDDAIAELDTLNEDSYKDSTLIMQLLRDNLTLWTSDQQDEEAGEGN

14-3-3ζ [6] = target: T3, 14-3-3ζ (human, UniProt P63104 1-245); assay: FP
T3 chain: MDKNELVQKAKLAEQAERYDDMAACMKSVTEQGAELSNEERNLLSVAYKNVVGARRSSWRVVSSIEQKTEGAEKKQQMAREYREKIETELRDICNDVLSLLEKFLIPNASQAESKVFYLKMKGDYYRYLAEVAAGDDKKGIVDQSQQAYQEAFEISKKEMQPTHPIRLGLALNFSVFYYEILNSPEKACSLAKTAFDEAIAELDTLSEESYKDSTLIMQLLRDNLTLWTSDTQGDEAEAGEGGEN

14-3-3β = target: T4, 14-3-3β (human, UniProt P31946 1-246); assay: FP
T4 chain: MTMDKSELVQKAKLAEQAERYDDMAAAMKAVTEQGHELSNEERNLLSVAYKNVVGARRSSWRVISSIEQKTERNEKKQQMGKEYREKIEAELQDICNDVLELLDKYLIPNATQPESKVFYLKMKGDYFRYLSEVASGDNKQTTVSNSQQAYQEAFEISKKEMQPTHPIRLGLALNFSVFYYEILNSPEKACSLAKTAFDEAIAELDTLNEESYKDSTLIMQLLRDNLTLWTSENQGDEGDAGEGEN

14-3-3γ [7] = target: T5, 14-3-3γ (human, UniProt P61981 1-247); assay: FP
T5 chain: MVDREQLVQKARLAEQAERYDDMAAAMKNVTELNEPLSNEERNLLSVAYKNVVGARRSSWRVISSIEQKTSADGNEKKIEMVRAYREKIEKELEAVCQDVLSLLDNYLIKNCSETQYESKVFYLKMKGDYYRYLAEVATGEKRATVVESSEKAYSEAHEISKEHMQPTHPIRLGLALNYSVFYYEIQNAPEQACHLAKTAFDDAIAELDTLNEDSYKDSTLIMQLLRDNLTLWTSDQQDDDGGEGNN

14-3-3ε = target: T6, 14-3-3ε (human, UniProt P62258 1-255); assay: FP
T6 chain: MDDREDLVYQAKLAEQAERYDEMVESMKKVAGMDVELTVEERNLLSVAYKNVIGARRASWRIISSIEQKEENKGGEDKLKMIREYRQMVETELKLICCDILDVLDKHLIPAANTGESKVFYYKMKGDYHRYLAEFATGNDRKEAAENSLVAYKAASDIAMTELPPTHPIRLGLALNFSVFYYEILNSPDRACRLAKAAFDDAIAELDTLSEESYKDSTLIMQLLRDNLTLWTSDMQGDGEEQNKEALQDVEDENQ

14-3-3τ [8] = target: T7, 14-3-3τ (human, UniProt P27348 1-245); assay: FP
T7 chain: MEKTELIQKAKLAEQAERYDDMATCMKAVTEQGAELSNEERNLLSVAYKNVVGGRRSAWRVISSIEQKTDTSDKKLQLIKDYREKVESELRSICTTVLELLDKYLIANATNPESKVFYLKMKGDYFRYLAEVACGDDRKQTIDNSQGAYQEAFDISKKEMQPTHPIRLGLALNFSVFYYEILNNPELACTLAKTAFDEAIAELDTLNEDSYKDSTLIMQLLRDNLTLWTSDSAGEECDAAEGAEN

14-3-3γ [9] = target: T8, 14-3-3γ (human, UniProt P61981 1-247); assay: fluorescence polarisation; 10 nM fluorescein-labelled peptide titrated with 14-3-3 protein (1 nM to 120 µM in the results, 100 µM to 1 nM in the methods); 20 mM MOPS, 150 mM NaCl, 0.005% (v/v) CHAPS pH 7.0; room temperature; monophasic fit; details: both partners purified
T8 construct: 14-3-3 protein gamma, human; open reading frame inserted into pMAL2Cx; also called 14-3-3 gamma
T8 sequence (looked up): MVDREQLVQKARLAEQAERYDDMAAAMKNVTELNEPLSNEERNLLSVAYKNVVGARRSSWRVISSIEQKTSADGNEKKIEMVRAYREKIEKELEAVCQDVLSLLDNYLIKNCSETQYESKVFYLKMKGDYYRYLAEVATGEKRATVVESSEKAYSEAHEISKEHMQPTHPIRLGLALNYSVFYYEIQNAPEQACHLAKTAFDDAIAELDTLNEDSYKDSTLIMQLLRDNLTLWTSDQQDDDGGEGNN

14-3-3ζ [10] = target: T9, 14-3-3ζ (human, UniProt P63104 1-245); assay: as above; details: both partners purified
T9 construct: 14-3-3 protein zeta, human; open reading frame inserted into pMAL2Cx; also called 14-3-3 zeta
T9 sequence (looked up): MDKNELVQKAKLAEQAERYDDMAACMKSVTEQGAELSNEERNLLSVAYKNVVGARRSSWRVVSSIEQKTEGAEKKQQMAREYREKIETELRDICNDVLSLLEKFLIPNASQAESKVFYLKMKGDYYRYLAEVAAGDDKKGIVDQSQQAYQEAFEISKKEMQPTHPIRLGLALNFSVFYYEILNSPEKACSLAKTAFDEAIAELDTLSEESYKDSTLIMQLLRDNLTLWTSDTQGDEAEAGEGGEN

14-3-3η [11] = target: T10, 14-3-3η (human, UniProt Q04917 1-246); assay: as above; details: both partners purified
T10 construct: 14-3-3 protein eta, human; open reading frame inserted into pMAL2Cx; also called 14-3-3 eta
T10 sequence (looked up): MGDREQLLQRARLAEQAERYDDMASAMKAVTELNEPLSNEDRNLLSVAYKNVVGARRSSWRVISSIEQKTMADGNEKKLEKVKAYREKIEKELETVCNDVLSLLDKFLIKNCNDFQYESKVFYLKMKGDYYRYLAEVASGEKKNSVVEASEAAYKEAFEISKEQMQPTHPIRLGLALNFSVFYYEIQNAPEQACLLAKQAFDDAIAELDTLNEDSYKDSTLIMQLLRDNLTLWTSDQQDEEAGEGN

14-3-3τ [12] = target: T11, 14-3-3τ (human, UniProt P27348 1-245); assay: as above; details: both partners purified
T11 construct: 14-3-3 protein tau (theta), human; open reading frame inserted into pMAL2Cx; also called 14-3-3 tau
T11 sequence (looked up): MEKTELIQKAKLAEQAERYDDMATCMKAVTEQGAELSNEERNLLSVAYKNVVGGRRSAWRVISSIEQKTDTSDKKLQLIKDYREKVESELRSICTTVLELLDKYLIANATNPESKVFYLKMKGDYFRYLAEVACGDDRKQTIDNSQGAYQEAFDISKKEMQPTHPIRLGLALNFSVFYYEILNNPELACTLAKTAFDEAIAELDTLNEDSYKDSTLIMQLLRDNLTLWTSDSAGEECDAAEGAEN

Binder	Kd [1] [nM]	Kd [2] [nM]	Kd [3] [nM]	fold reduction of affinity against the TASK-3 pS373 peptide with V374 [4] [fold]	Kd (14-3-3η [5]) [nM]	Kd (14-3-3ζ [6]) [nM]	Kd (14-3-3β) [nM]	Kd (14-3-3γ [7]) [nM]	Kd (14-3-3ε) [nM]	Kd (14-3-3τ [8]) [nM]	binding result (14-3-3γ [9])	binding result (14-3-3ζ [10])	binding result (14-3-3η [11])	binding result (14-3-3τ [12])
14-3-3β (natural protein, human, UniProt P31946 1-246, looked up, 14-3-3 protein beta, human; open reading frame inserted into pMAL2Cx; also called 14-3-3 beta) MTMDKSELVQKAKLAEQAERYDDMAAAMKAVTEQGHELSNEERNLLSVAYKNVVGARRSSWRVISSIEQKTERNEKKQQMGKEYREKIEAELQDICNDVLELLDKYLIPNATQPESKVFYLKMKGDYFRYLSEVASGDNKQTTVSNSQQAYQEAFEISKKEMQPTHPIRLGLALNFSVFYYEILNSPEKACSLAKTAFDEAIAELDTLNEESYKDSTLIMQLLRDNLTLWTSENQGDEGDAGEGEN	181	100000	7500	3	–	–	–	–	–	–	–	–	–	–
B1	–	–	–	–	1600	3300	1200	1100	18000	2400	binds	binds	binds	binds
14-3-3ε (natural protein, human, UniProt P62258 1-255, looked up, 14-3-3 protein epsilon, human; open reading frame inserted into pMAL2Cx; also called 14-3-3 epsilon) MDDREDLVYQAKLAEQAERYDEMVESMKKVAGMDVELTVEERNLLSVAYKNVIGARRASWRIISSIEQKEENKGGEDKLKMIREYRQMVETELKLICCDILDVLDKHLIPAANTGESKVFYYKMKGDYHRYLAEFATGNDRKEAAENSLVAYKAASDIAMTELPPTHPIRLGLALNFSVFYYEILNSPDRACRLAKAAFDDAIAELDTLSEESYKDSTLIMQLLRDNLTLWTSDMQGDGEEQNKEALQDVEDENQ	150	100000	–	23	–	–	–	–	–	–	–	–	–	–
SFTDHQRLMKRRK[pS]V (also: fluorescein label, position not given here) [TASK-3 pS373 C-terminal fluorescent peptide (last 15 amino acids)]	–	–	–	–	–	1000	370	150	800	220	–	–	–	–
